The text below walks through data of paper PMC4627693 (Chemistry & biology, 2014).

Where no end group is shown, it is not given here. The star is where a group is joined. Biotin = O=C1N[C@H]2[C@H](CS[C@H]2CCCCC(=O)*)N1; code Z = ethylene glycol unit

The test concerns the target c-Src tyrosine kinase (recombinant) (UniProt P00523 1-533). Description: cross-linking.

In general, EC50 refers to the concentration at which the effect is half-maximal.

Consider {Biotin-code Z-code Z}-ICGEFRRR [Cys-Srctide (Biotin-ZZICGEFRRR)], for which the EC50 is 63 µM.
